Measurements published in article doi:10.1101/2021.05.19.444900 (bioRxiv, 2021).

B1: recombinant NAP1L1 (aa 69-391 of isoform 1) with N-terminal His-tag (domain or fragment)
chain: SLPRVVKRRVNALKNLQVKCAQIEAKFYEEVHDLERKYAVLYQPLFDKRFEIINAIYEPTEEECEWKPDEEDEISEELKEKAKIEDEKKDEEKEDPKGIPEFWLTVFKNVDLLSDMVQEHDEPILKHLKDIKVKFSDAGQPMSFVLEFHFEPNEYFTNEVLTKTYRMRSEPDDSDPFSFDGPEIMGCTGCQIDWKKGKNVTLKTIKKKQKHKGRGTVRTVTKTVSNDSFFNFFAPPEVPESGDLDDDAEAILAADFEIGHFLRERIIPRSVLYFTGEAIEDDDDDYDEEGEEADEEGEEEGDEENDPDYDPKKDQNPAECKQQ
B2: recombinant NAP1L4 (aa 2-375 of isoform 1) with N-terminal His-tag (natural protein)
chain: ADHSFSDGVPSDSVEAAKNASNTEKLTDQVMQNPRVLAALQERLDNVPHTPSSYIETLPKAVKRRINALKQLQVRCAHIEAKFYEEVHDLERKYAALYQPLFDKRREFITGDVEPTDAESEWHSENEEEEKLAGDMKSKVVVTEKAAATAEEPDPKGIPEFWFTIFRNVDMLSELVQEYDEPILKHLQDIKVKFSDPGQPMSFVLEFHFEPNDYFTNSVLTKTYKMKSEPDKADPFSFEGPEIVDCDGCTIDWKKGKNVTVKTIKKKQKHKGRGTVRTITKQVPNESFFNFFNPLKASGDGESLDEDSEFTLASDFEIGHFFRERIVPRAVLYFTGEAIEDDDNFEEGEEGEEEELEGDEEGEDEDDAEINPKV

Target: the molecule itself
Assay: SEC

| Protein | binding result |
| --- | --- |
| B1 | binds |
| B2 | binds |
